Results: patent publication US7109015B2, “Removal of N-terminal methionine from proteins by engineered methionine aminopeptidase” (Academia Sinica, priority 2004, dated 2006)
Changes are numbered by the printed parent chain. Names and notes keep the numbering of the source. Like-named read-outs stand apart in the source and are kept apart here. Marks after values point to notes of the source that are not given here.

What was measured:
[1] = tested on: Met-tagged onconase; test: In vivo catalytic activity of MetAPs co-expressed with Met-tagged onconase in E. coli BL21(DE3); N-terminus by Edman degradation; format: cell-based; conditions: in vivo in E. coli
Text: Residues Tyr168, Met206 and Gln233 in the putative substrate-binding site of E. coli MetAP were mutated by site-directed mutagenesis based on the crystal structure and amino acid sequence alignment of MetAPs (Ben-Bassat et al., 1987; Lowther et al., 1999; Walker et al., 1999). For the expression of secretory ribonucleases, the ribonuclease gene was cloned and expressed as described previously (Huang et al., 1998).
Most of the co-expressed target protein, e.g., onconase or RC-RNase L1, existed in insoluble cell lysate. They were denatured, renatured and purified as described previously (Liao et al., 2003). The purified ribonucleases were stored in 20 mM sodium phosphate, pH 7.0, for pyroglutamate formation at the N-terminus. Alternatively, the ribonuclease secreted into culture medium through pe1B system was concentrated and purified to electrophoretical homogeneity at a yield of 1˜5 mg per 1 liter of culture (Huang et al., 1998).

[2] = E. coli MetAP mutations; Chiu et al. 1999; cited from earlier work
[3] = tested on: synthetic oligopeptides; format: biochemical; conditions: for Specific activity (unit/mg): 4 mM oligopeptide, pH 7.5, 37° C.
Description: The oligopeptide substrates used in this experiment were synthesized on the 432A Synergy peptide synthesizer (Applied Biosystems, Foster, Calif., USA). The enzymatic activity of purified MetAP was assayed as described by Ben-Bassat et al., 1987. Briefly, the diluted MetAP enzyme in 10 μl was added to 90 μl of the substrate solution containing 4 mM oligopeptide, 0.1 M potassium phosphate buffer, pH 7.5 and 0.2 mM CoCl2, incubated at 37° C. for 10 min and stopped in boiling water for 2 min. After addition of 0.9 ml of color development mixture containing 0.2 mg of L-amino acid oxidase, 0.03 mg of horseradish peroxidase and 0.2 mg of o-dianisidine in 0.1 M Tris-HCl, pH 7.4, the mixtures were incubated for 10 min at 37° C., and the optical density at 440 nm was recorded. One unit of activity is defined as 1 μmol of amino acids produced per min under the assay conditions and the pure Met was used as standard. The N-terminal residues of the MetAP-treated oligopeptide were further verified by Edman degradation.

[4] = tested on: RC-RNase4; test: In vivo Met removal, co-expression in E. coli, RC-RNase 4 substrate; format: cell-based, Rana catesbeiana; conditions: substrate MAAWA (SEQ ID NO:15)-RC4; solubility −
Description: The MetAP was expressed alone or co-expressed with a target protein, i.e., onconase and RC-RNaseL1, in E. coli BL21 (DE3) in the presence of 0.5 mM IPTG at 37° C.
Proteins in the cell pellet or in the soluble fraction were separated by 13.3% SDS-PAGE and contact-transferred to ProBlott™ membrane (Applied Bioystems) in transfer buffer (10 mM Tris-HCl, pH 7.5, 50 mM NaCl, 2 mM EDTA, 0.5 mM 2-mercaptoethanol) overnight. The five N-terminal residues of the transferred protein were determined by Edman degradation. The percentage of Met removal was calculated by dividing the amount of proteins initiated with the penultimate residue with the amount of total proteins (including proteins initiated with the penultimate residue and unprocessed protein initiated with Met) after the first degradation cycle. In theory, this percentage should remain the same after each degradation cycle. Therefore, in order to avoid experimental variation, the same calculation was made from five consecutive degradation cycles, e.g., M, Q, N, W and L for onconase. The efficiency of Met removal is reported as the mean values of at least three cycles.

[5] = target: Met-tagged onconase with different penultimate residue (Escherichia coli, UniProt P0AE18); conditions: adapted from Hirel et al., 1989, cited from earlier work
[6] = substrate MAA-Onc, listed as wild type E. coli MetAP

B1: MetAP-Q233G: E. coli MetAP with Gln233 replaced by Gly (protein, UniProt P0AE18 2-264, looked up, variant Q233G)
Methionine aminopeptidase: AISIKTPEDIEKMRVAGRLAAEVLEMIEPYVKPGVSTGELDRICNDYIVNEQHAVSACLGYHGYPKSVCISINEVVCHGIPDDAKLLKDGDIVNIDVTVIKDGFHGDTSKMFIVGKPTIMGERLCRITQESLYLALRMVKPGINLREIGAAIQKFVEAEGFSVVREYCGHGIGRGFHEEPQVLHYDSRETNVVLKPGMTFTIEPMVNAGKKEIRTMKDGWTVKTKDRSLSAGYEHTIVVTDNGCEILTLRKDDTIPAIISHDE
[1]; substrate MQD-Onc
  Catalytic activity (%): removal of N-terminal Met: 74%

B2: C59S: E. coli MetAP mutation in the putative substrate-binding pocket (protein, UniProt P0AE18 2-264, looked up, variant C59S)
Methionine aminopeptidase: B1 Methionine aminopeptidase with C58S, G232Q
[2]
  Catalytic activity, % activity of the wild type: do not reduce catalytic activity

B3: MetAP-Q233T: E. coli MetAP with Gln233 replaced by Thr (protein, UniProt P0AE18 2-264, looked up, variant Q233T)
Methionine aminopeptidase: B1 Methionine aminopeptidase with G232T
[1]; substrate MQD-Onc
  Catalytic activity (%): removal of N-terminal Met: 88%

B4: MetAP-M206V: E. coli MetAP with Met206 replaced by Val (protein, UniProt P0AE18 2-264, looked up, variant M206V)
Methionine aminopeptidase: B1 Methionine aminopeptidase with M205V, G232Q
[1]; substrate MQD-Onc
  Catalytic activity (%): removal of N-terminal Met: 61%

B5: MetAP-M206T: E. coli MetAP with Met206 replaced by Thr (protein, UniProt P0AE18 2-264, looked up, variant M206T)
Methionine aminopeptidase: B1 Methionine aminopeptidase with M205T, G232Q
[1]; substrate MQD-Onc
  Catalytic activity (%): removal of N-terminal Met: 86%

B6: Y65F: E. coli MetAP mutation in the putative substrate-binding pocket (protein, UniProt P0AE18 2-264, looked up, variant Y65F)
Methionine aminopeptidase: B1 Methionine aminopeptidase with Y64F, G232Q
[2]
  Catalytic activity, % activity of the wild type: do not reduce catalytic activity

B7: MetAP-*TT (protein)
chain: B1 Methionine aminopeptidase with M205T, G232T
[3]; substrate MADY (SEQ ID NO:7)
  Specific activity (unit/mg): 0.38 ± 0.03 unit/mg
[3]; substrate MADYLT (SEQ ID NO:8)
  Specific activity (unit/mg): 0.12 ± 0.01 unit/mg
[3]; substrate MQDYLT (SEQ ID NO:9)
  Specific activity (unit/mg): 0.13 ± 0.01 unit/mg
[3]; substrate […] (SEQ ID NO:5)
  Specific activity (unit/mg): 1.00 ± 0.08 unit/mg
[3]; substrate […] (SEQ ID NO:6)
  Specific activity (unit/mg): 0.25 ± 0.01 unit/mg
[1]; substrate MQD-Onc
  Catalytic activity (%): removal of N-terminal Met: 93%

B8: Y62F: E. coli MetAP mutation in the putative substrate-binding pocket (protein, UniProt P0AE18 2-264, looked up, variant Y62F)
Methionine aminopeptidase: B1 Methionine aminopeptidase with Y61F, G232Q
[2]
  Catalytic activity, % activity of the wild type: do not reduce catalytic activity

B9: MetAP-M206G: E. coli MetAP with Met206 replaced by Gly (protein, UniProt P0AE18 2-264, looked up, variant M206G)
Methionine aminopeptidase: B1 Methionine aminopeptidase with M205G, G232Q
[1]; substrate MQD-Onc
  Catalytic activity (%): removal of N-terminal Met: 85%

B10: MetAP-*GG (protein)
chain: B1 Methionine aminopeptidase with M205G
[3]; substrate MADY (SEQ ID NO:7)
  Specific activity (unit/mg): 0.51 ± 0.01 unit/mg
[3]; substrate MADYLT (SEQ ID NO:8)
  Specific activity (unit/mg): 0.29 ± 0.01 unit/mg
[3]; substrate MQDYLT (SEQ ID NO:9)
  Specific activity (unit/mg): 0.29 ± 0.02 unit/mg
[3]; substrate […] (SEQ ID NO:5)
  Specific activity (unit/mg): 3.28 ± 0.04 unit/mg
[3]; substrate […] (SEQ ID NO:6)
  Specific activity (unit/mg): 0.50 ± 0.02 unit/mg
[1]; substrate MID-Onc
  Catalytic activity (%): removal of N-terminal Met: 5%
[1]; substrate MLD-Onc
  Catalytic activity (%): removal of N-terminal Met: 18%
[1]; substrate MQD-Onc
  Catalytic activity (%): removal of N-terminal Met: 96%

B11: MetAP-YMQ: wild type E. coli Met aminopeptidase (SEQ ID NO:1) (protein, listed as Escherichia coli)
chain: MAISIKTPEDIEKMRVAGRLAAEVLEMIEPYVKPGVSTGELDRICNDYIVNEQHAVSACLGYHGYPKSVCISINEVVCHGIPDDAKLLKDGDIVNIDVTVIKDGFHGDTSKMFIVGKPTIMGERLCRITQESLYLALRMVKPGINLREIGAAIQKFVEAEGFSVVREYCGHGIGRGFHEEPQVLHYDSRETNVVLKPGMTFTIEPMVNAGKKEIRTMKDGWTVKTKDRSLSAQYEHTIVVTDNGCEILTLRKDDTIPAIISHDE
[3]; oligopeptides ranging from tetra- to dodecapeptides with Ala at the penultimate site
  In vitro catalytic activity: high catalytic activity
[3]; substrate MADY (SEQ ID NO:7)
  Specific activity (unit/mg): 138 ± 8 unit/mg
[3]; substrate MADYLT (SEQ ID NO:8)
  Specific activity (unit/mg): 138 ± 6 unit/mg
[3]; substrate MQDYLT (SEQ ID NO:9)
  Specific activity (unit/mg): 0.43 ± 0.01 unit/mg
[3]; substrate […] (SEQ ID NO:5)
  Specific activity (unit/mg): 85 ± 13 unit/mg
[3]; substrate […] (SEQ ID NO:6)
  Specific activity (unit/mg): 0.62 ± 0.08 unit/mg
[1]; substrate MAA-Onc
  Catalytic activity (%): percent of penultimate residue removed: 77%
  Catalytic activity (%): removal of N-terminal Met: 85%
[1]; [6]
  Catalytic activity (%): percent of penultimate residue removed: removed
  Catalytic activity (%): removal of N-terminal Met: removed
[1]; substrate MAG-Onc
  Catalytic activity (%): percent of penultimate residue removed: 63%
  Catalytic activity (%): removal of N-terminal Met: 80%
[1]; substrate MQD-Onc, listed as wild type MetAP
  Catalytic activity (%): removal of N-terminal Met: failed altogether
[1]; substrate MQD-Onc, listed as wild type enzyme
  Catalytic activity (%): removal of N-terminal Met: no activity
[4]
  Catalytic activity (%): percent of penultimate residue removed: removed
  Catalytic activity (%): removal of N-terminal Met: removed
[5]; substrate MAD-Onc
  Catalytic activity (%): efficiency of Met removal by wild type MetAP: 100%
[5]; substrate MDD-Onc
  Catalytic activity (%): efficiency of Met removal by wild type MetAP: ~20%
[5]; substrate MED-Onc
  Catalytic activity (%): efficiency of Met removal by wild type MetAP: 0%
[5]; substrate MFD-Onc
  Catalytic activity (%): efficiency of Met removal by wild type MetAP: 0%
[5]; substrate MGD-Onc
  Catalytic activity (%): efficiency of Met removal by wild type MetAP: 100^c %
[5]; substrate MHD-Onc
  Catalytic activity (%): efficiency of Met removal by wild type MetAP: 0%
[5]; substrate MID-Onc
  Catalytic activity (%): efficiency of Met removal by wild type MetAP: ~20%
[5]; substrate MKD-Onc
  Catalytic activity (%): efficiency of Met removal by wild type MetAP: 0%
[5]; substrate MLD-Onc
  Catalytic activity (%): efficiency of Met removal by wild type MetAP: ~20%
[5]; substrate MMD-Onc
  Catalytic activity (%): efficiency of Met removal by wild type MetAP: 0%
[5]; substrate MND-Onc
  Catalytic activity (%): efficiency of Met removal by wild type MetAP: ~20%
[5]; substrate MPD-Onc
  Catalytic activity (%): efficiency of Met removal by wild type MetAP: 80–90%
[5]; substrate MQD-Onc
  Catalytic activity (%): efficiency of Met removal by wild type MetAP: 0%
[5]; substrate MRD-Onc
  Catalytic activity (%): efficiency of Met removal by wild type MetAP: 0%
[5]; substrate MSD-Onc
  Catalytic activity (%): efficiency of Met removal by wild type MetAP: 80–90%
[5]; substrate MTD-Onc
  Catalytic activity (%): efficiency of Met removal by wild type MetAP: 80–90%
[5]; substrate MVD-Onc
  Catalytic activity (%): efficiency of Met removal by wild type MetAP: 80–90%
[5]; substrate MWD-Onc
  Catalytic activity (%): efficiency of Met removal by wild type MetAP: 0%
[5]; substrate MWD-Onc, listed as wild type MetAP
  Catalytic activity (%): efficiency of Met removal by wild type MetAP: inactive
[5]; substrate MYD-Onc
  Catalytic activity (%): efficiency of Met removal by wild type MetAP: 0%
[5]; substrate MYD-Onc, listed as wild type MetAP
  Catalytic activity (%): efficiency of Met removal by wild type MetAP: inactive
